Experimental findings from publication PMC9290431 are described below.

Several values for one entry are separate records, joined by “and”; a condition that tells them apart may be missing. Equal values may be shown once. Read-outs that look alike come from different tables or passages of the source.

Test [1] concerns the target TDP-43 NTD-NLS (human). Description: AUC.
Test [2] has as its target TDP-43 NTD-NLS (human). Description: AUC. This is another data set of the same source.

In general, stoichiometry N refers to a count of units in the complex or per binding partner. For TDP-43 NTD-NLS (domain or fragment), the stoichiometry N was 2 and 4 with TDP-43 NTD-NLS (human) [1]; 8 with TDP-43 NTD-NLS (human) [2].
